Assay in all cases: BLI (Octet), binder on AHC sensor, 100 nM human antigen, 1:1 fit
(In general: BLI is a label-free optical method that tracks binding on a fibre tip over time.)

One assay deals with T1, human HER3 (human, UniProt P21860 20-643).
T1 construct: Soluble antigen in Octet; bought; also called human HER3 (Acro ER3-H5223)

The target in a further assay is T2, human CD3 (human, UniProt P07766 23-126; P04234 22-105).
T2 construct: also called His-tagged human CD3; human CD3 (Acro CDD-H52W1)

Another assay deals with T3, human EGFR (human, UniProt P00533 25-645, limits assumed).
T3 construct: Soluble antigen in Octet; construct not described

For orientation: Kd means the constant that tells how readily two partners part at equilibrium. High values mean weaker binding, low ones tighter binding.

B1: SI-75X2 (bispecific antibody, human IgG1, kappa, L234A L235A)
chain 1: EVQLVESGGGLVQPGGSLRLSCAASGFTISTNAMSWVRQAPGKGLEWIGVITGRDITYYASWAKGRFTISRDNSKNTLYLQMNSLRAEDTAVYYCARDGGSSAITSNNIWGQGTLVTVSSASTKGPSVFPLAPSSKSTSGGTAALGCLVKDYFPEPVTVSWNSGALTSGVHTFPAVLQSSGLYSLSSVVTVPSSSLGTQTYICNVNHKPSNTKVDKRVEPKSCDKTHTCPPCPAPEAAGGPSVFLFPPKPKDTLMISRTPEVTCVVVDVSHEDPEVKFNWYVDGVEVHNAKTKPREEQYNSTYRVVSVLTVLHQDWLNGKEYKCAVSNKALPAPIEKTISKAKGQPREPQVYTLPPSRDELTKNQVSLSCAVKGFYPSDIAVEWESNGQPENNYKTTPPVLDSDGSFFLVSKLTVDKSRWQQGNVFSCSVMHEALHNHYTQKSLSLSPG
chain 2: QSALTQPASVSGSPGQSITISCTGTSSDVGGYNFVSWYQQHPGKAPKLMIYDVSDRPSGVSDRFSGSKSGNTASLIISGLQADDEADYYCSSYGSSSTHVIFGGGTKVTVLGGGGSGGGGSGGGGSGGGGSQVQLQESGGGLVKPGGSLSLSCAASGFTFSSYWMSWVRQAPGKGLEWVANINRDGSASYYVDSVKGRFTISRDDAKNSLYLQMNSLRAEDTAVYYCARDRGVGYFDLWGRGTLVTVSSGGGGSGGGGSDVVMTQSPSTLSASVGDRVTINCQASESISSWLAWYQQKPGKAPKLLIYEASKLASGVPSRFSGSGSGTEFTLTISSLQPDDFATYYCQGYFYFISRTYVNSFGGGTKVEIKRTVAAPSVFIFPPSDEQLKSGTASVVCLLNNFYPREAKVQWKVDNALQSGNSQESVTEQDSKDSTYSLSSTLTLSKADYEKHKVYACEVTHQGLSSPVTKSFNRGECGGDKTHTCPPCPAPEAAGGPSVFLFPPKPKDTLMISRTPEVTCVVVDVSHEDPEVKFNWYVDGVEVHNAKTKPREEQYNSTYRVVSVLTVLHQDWLNGKEYKCAVSNKALPAPIEKTISKAKGQPREPQVYTLPPSRDELTKNQVSLWCLVKGFYPSDIAVEWESNGQPENNYKTTPPVLDSDGSFFLYSKLTVDKSRWQQGNVFSCSVMHEALHNRFTQKSLSLSPG
notes: bi-miniGNC; D2 αHER3, D3 αCD3 (Fab); also called bi-miniGNC (SI-75X2)
For the molecule B1, the Kd was determined as 0.162 µM with human HER3 and 0.0278 µM with human CD3.

B2: SI-75X5 (bispecific antibody, human IgG1, kappa, L234A L235A)
chain 1: QVQLQESGGRLVQPGEPLSLTCKTSGIDLSSNAIGWVRQAPGKGLEWIGVIFGSGNTYYASWAKGRFTISRSTSTVYLKMNSLRSEDTAIYYCARGGYSSDIWGQGTLVTVSSASTKGPSVFPLAPSSKSTSGGTAALGCLVKDYFPEPVTVSWNSGALTSGVHTFPAVLQSSGLYSLSSVVTVPSSSLGTQTYICNVNHKPSNTKVDKRVEPKSCDKTHTCPPCPAPEAAGGPSVFLFPPKPKDTLMISRTPEVTCVVVDVSHEDPEVKFNWYVDGVEVHNAKTKPREEQYNSTYRVVSVLTVLHQDWLNGKEYKCAVSNKALPAPIEKTISKAKGQPREPQVYTLPPSRDELTKNQVSLSCAVKGFYPSDIAVEWESNGQPENNYKTTPPVLDSDGSFFLVSKLTVDKSRWQQGNVFSCSVMHEALHNHYTQKSLSLSPG
chain 2: QSALTQPASVSGSPGQSITISCTGTSSDVGGYNFVSWYQQHPGKAPKLMIYDVSDRPSGVSDRFSGSKSGNTASLIISGLQADDEADYYCSSYGSSSTHVIFGGGTKVTVLGGGGSGGGGSGGGGSGGGGSQVQLQESGGGLVKPGGSLSLSCAASGFTFSSYWMSWVRQAPGKGLEWVANINRDGSASYYVDSVKGRFTISRDDAKNSLYLQMNSLRAEDTAVYYCARDRGVGYFDLWGRGTLVTVSSGGGGSGGGGSDPQLTQSPSSLSATVGQRVTINCQSSQSVAKNNNLAWFQQKPGKPPKLLIYSASTLAAGVPSRFSGSGSGTQFTLTITRVQSEDFATYYCSARDSGNIQSFGGGTRVEIKRTVAAPSVFIFPPSDEQLKSGTASVVCLLNNFYPREAKVQWKVDNALQSGNSQESVTEQDSKDSTYSLSSTLTLSKADYEKHKVYACEVTHQGLSSPVTKSFNRGECGGDKTHTCPPCPAPEAAGGPSVFLFPPKPKDTLMISRTPEVTCVVVDVSHEDPEVKFNWYVDGVEVHNAKTKPREEQYNSTYRVVSVLTVLHQDWLNGKEYKCAVSNKALPAPIEKTISKAKGQPREPQVYTLPPSRDELTKNQVSLWCLVKGFYPSDIAVEWESNGQPENNYKTTPPVLDSDGSFFLYSKLTVDKSRWQQGNVFSCSVMHEALHNRFTQKSLSLSPG
notes: bi-miniGNC, IgG1; D2 αHER3, D3 αCD3* (Fab); Chain B carries H435R/Y436F (Fc) and R19S (VH of the αHER3 scFv)
As to B2, the Kd in the assay with human HER3 is 0.139 µM; with human CD3, 0.0444 µM.

B3: SI-75X1 (bispecific antibody, human IgG1, kappa, L234A L235A)
chain 1: EIVLTQSPSTLSVSPGERATFSCRASQSIGTNIHWYQQKPGKPPRLLIKYASESISGIPDRFSGSGSGTEFTLTISSVQSEDFAVYYCQQNNNWPTTFGPGTKLTVLGGGGSGGGGSGGGGSGGGGSQVQLQQSGPGLVKPSETLSITCTVSGFSLTNYGVHWIRQAPGKGLEWLGVIWSGGNTDYNTPFTSRFTITKDNSKNQVYFKLRSVRADDTAIYYCARALTYYDYEFAYWGQGTLVTVSSGGGGSGGGGSEVQLVESGGGLVQPGGSLRLSCAASGFTISTNAMSWVRQAPGKGLEWIGVITGRDITYYASWAKGRFTISRDNSKNTLYLQMNSLRAEDTAVYYCARDGGSSAITSNNIWGQGTLVTVSSASTKGPSVFPLAPSSKSTSGGTAALGCLVKDYFPEPVTVSWNSGALTSGVHTFPAVLQSSGLYSLSSVVTVPSSSLGTQTYICNVNHKPSNTKVDKRVEPKSCDKTHTCPPCPAPEAAGGPSVFLFPPKPKDTLMISRTPEVTCVVVDVSHEDPEVKFNWYVDGVEVHNAKTKPREEQYNSTYRVVSVLTVLHQDWLNGKEYKCAVSNKALPAPIEKTISKAKGQPREPQVYTLPPSRDELTKNQVSLSCAVKGFYPSDIAVEWESNGQPENNYKTTPPVLDSDGSFFLVSKLTVDKSRWQQGNVFSCSVMHEALHNHYTQKSLSLSPG
chain 2: DVVMTQSPSTLSASVGDRVTINCQASESISSWLAWYQQKPGKAPKLLIYEASKLASGVPSRFSGSGSGTEFTLTISSLQPDDFATYYCQGYFYFISRTYVNSFGGGTKVEIKRTVAAPSVFIFPPSDEQLKSGTASVVCLLNNFYPREAKVQWKVDNALQSGNSQESVTEQDSKDSTYSLSSTLTLSKADYEKHKVYACEVTHQGLSSPVTKSFNRGECGGDKTHTCPPCPAPEAAGGPSVFLFPPKPKDTLMISRTPEVTCVVVDVSHEDPEVKFNWYVDGVEVHNAKTKPREEQYNSTYRVVSVLTVLHQDWLNGKEYKCAVSNKALPAPIEKTISKAKGQPREPQVYTLPPSRDELTKNQVSLWCLVKGFYPSDIAVEWESNGQPENNYKTTPPVLDSDGSFFLYSKLTVDKSRWQQGNVFSCSVMHEALHNRFTQKSLSLSPG
notes: bi-miniGNC; D1 αEGFR, D3 αCD3 (Fab)
Regarding B3, the Kd with human CD3 stood at 0.024 µM; in the assay with human EGFR it was 0.00811 µM.

These data come from patent US20230114801A1 (SYSTIMMUNE, published 2023).
